# From PMC11447106 (Clinical and Translational Medicine, 2024)
# Substitutions are numbered along the chain they refer to.
# B1: His-NRF2 (natural protein, UniProt Q16236 1-605, looked up)
# chain: MMDLELPPPGLPSQQDMDLIDILWRQDIDLGVSREVFDFSQRRKEYELEKQKKLEKERQEQLQKEQEKAFFAQLQLDEETGEFLPIQPAQHIQSETSGSANYSQVAHIPKSDALYFDDCMQLLAQTFPFVDDNEVSSATFQSLVPDIPGHIESPVFIATNQAQSPETSVAQVAPVDLDGMQQDIEQVWEELLSIPELQCLNIENDKLVETTMVPSPEAKLTEVDNYHFYSSIPSMEKEVGNCSPHFLNAFEDSFSSILSTEDPNQLTVNSLNSDATVNTDFGDEFYSAFIAEPSISNSMPSPATLSHSLSELLNGPIDVSDLSLCKAFNQNHPESTAEFNDSDSGISLNTSPSVASPEHSVESSSYGDTLLGLSDSEVEELDSAPGSVKQNGPKTPVHSSGDMVQPLSPSQGQSTHVHDAQCENTPEKELPVSPGHRKTPFTKDKHSSRLEAHLTRDELRAKALHIPFPVEKIINLPVVDFNEMMSKEQFNEAQLALIRDIRRRGKNKVAAQNCRKRKLENIVELEQDLDHLKDEKEKLLKEKGENDKSLHLLKKQLSTLYLEVFSMLRDEDGKPYSPSEYSLQQTRDGNVFLVPKSKKPDVKKN
# notes: NRF2; Construct details are said to be in the Supplementary Information
# Assays:
# GST-OGT^WT = molecular target: T1, GST-OGT^WT (UniProt O15294-3 1-1036); test: pull-down; in vitro GST pull-down; GST-OGT^WT or GST-OGT^T444E with His-NRF2; settings: both partners purified
# T1 construct: OGT, wild type; The printed Thr444 fits the 1036-residue isoform
# T1 sequence (looked up): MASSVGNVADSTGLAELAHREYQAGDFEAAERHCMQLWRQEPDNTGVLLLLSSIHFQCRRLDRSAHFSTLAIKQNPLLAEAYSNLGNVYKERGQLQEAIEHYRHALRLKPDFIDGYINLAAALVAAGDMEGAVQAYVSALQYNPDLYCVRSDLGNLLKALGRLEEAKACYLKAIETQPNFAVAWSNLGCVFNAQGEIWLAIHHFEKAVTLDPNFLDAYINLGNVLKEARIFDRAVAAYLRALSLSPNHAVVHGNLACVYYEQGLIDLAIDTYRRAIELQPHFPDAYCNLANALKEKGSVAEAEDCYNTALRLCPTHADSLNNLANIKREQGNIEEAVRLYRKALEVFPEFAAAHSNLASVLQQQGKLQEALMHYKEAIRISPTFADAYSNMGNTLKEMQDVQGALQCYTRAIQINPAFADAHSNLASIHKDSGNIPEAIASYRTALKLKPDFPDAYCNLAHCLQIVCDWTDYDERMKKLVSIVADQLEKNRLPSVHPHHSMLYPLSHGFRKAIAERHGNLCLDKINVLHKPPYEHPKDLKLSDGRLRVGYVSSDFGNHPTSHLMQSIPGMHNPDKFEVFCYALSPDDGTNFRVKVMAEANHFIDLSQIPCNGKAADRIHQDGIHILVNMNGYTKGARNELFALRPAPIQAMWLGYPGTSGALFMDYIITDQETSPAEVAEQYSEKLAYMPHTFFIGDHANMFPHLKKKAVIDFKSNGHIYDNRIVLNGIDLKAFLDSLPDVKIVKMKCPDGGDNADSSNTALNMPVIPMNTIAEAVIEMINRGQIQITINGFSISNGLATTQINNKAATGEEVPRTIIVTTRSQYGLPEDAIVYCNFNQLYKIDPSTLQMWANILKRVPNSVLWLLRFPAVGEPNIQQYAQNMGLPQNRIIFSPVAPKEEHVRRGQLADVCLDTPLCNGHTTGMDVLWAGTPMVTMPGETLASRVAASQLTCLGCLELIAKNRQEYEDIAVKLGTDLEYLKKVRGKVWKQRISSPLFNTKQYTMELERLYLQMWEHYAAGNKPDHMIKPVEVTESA
# GST-OGT^T444E = molecular target: T2, GST-OGT^T444E (UniProt O15294-3 1-1036, T444E); test: as above; settings: both partners purified
# T2 construct: OGT with T444E (mimics phosphorylation at Thr444); The printed Thr444 fits the 1036-residue isoform
# T2 sequence (looked up): T1 sequence (looked up) with T444E
binder,measurement,setting,value
B1,binding result,GST-OGT^WT,binds
same,binding result,GST-OGT^T444E,binds
